The supplement of paper PMC9112550, “Optimization of the antimicrobial peptide Bac7 by deep mutational scanning” (BMC Biology, 2022)

test system: Escherichia coli TOP10; test: shrunken log2 fold change of peptide-encoding DNA abundance (4.5 h post-induction vs induction); higher = less antimicrobial activity (less host growth inhibition); settings: time post-induction: 4.5 h; library: site-saturation at positions 5, 18, 19, 20
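Further: peptides expressed intracellularly from a pBAD plasmid library in pooled LB shake-flask culture, induced with 0.3% L-arabinose, DNA abundance read by NGS, three biological replicates, DESeq2 with apeglm shrinkage.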

Sequence | shrunken log2 fold change
RRIRYRPPRLPRPRPRPMAFPRP | -0.557
RRIRQRPPRLPRPRPRPHWDPRP | -0.224
RRIRMRPPRLPRPRPRPAYLPRP | 0.0142
RRIRYRPPRLPRPRPRPSNCPRP | -0.107
RRIRSRPPRLPRPRPRPCYSPRP | -0.839
RRIRCRPPRLPRPRPRPKWWPRP | 0.0539
RRIRDRPPRLPRPRPRPGFNPRP | 0.125
RRIRHRPPRLPRPRPRPDGAPRP | -0.0729
RRIRWRPPRLPRPRPRPHALPRP | -0.118
RRIRIRPPRLPRPRPRPWDEPRP | -0.156
RRIRGRPPRLPRPRPRPMMEPRP | 0.372
RRIRGRPPRLPRPRPRPFQHPRP | -0.0674
RRIRERPPRLPRPRPRPCMLPRP | -0.241
RRIRHRPPRLPRPRPRPLMMPRP | -0.124
RRIRTRPPRLPRPRPRPFHEPRP | -0.126
RRIRYRPPRLPRPRPRPRLFPRP | -0.194
RRIRLRPPRLPRPRPRPTGFPRP | -0.158
RRIRSRPPRLPRPRPRPVLYPRP | 1.03
RRIRPRPPRLPRPRPRPDMWPRP | -0.103
RRIRGRPPRLPRPRPRPQLGPRP | 0.649
RRIRTRPPRLPRPRPRPKKFPRP | -0.403
RRIRFRPPRLPRPRPRPWMLPRP | -0.277
RRIRNRPPRLPRPRPRPFLTPRP | -0.505
RRIRARPPRLPRPRPRPIRCPRP | 0.188
RRIRNRPPRLPRPRPRPLEDPRP | 0.0414

Sequence | shrunken log2 fold change
RRIRFRPPRLPRPRPRPYRTPRP | -0.165
RRIRWRPPRLPRPRPRPEYSPRP | 0.0675
RRIRYRPPRLPRPRPRPAPPPRP | 0.417
RRIRERPPRLPRPRPRPRKNPRP | -0.0182
RRIRVRPPRLPRPRPRPEHCPRP | 0.404
RRIRDRPPRLPRPRPRPCYLPRP | -0.345
RRIRPRPPRLPRPRPRPFVMPRP | -0.201
RRIRGRPPRLPRPRPRPGSEPRP | 0.864
RRIRCRPPRLPRPRPRPCHFPRP | -0.273
RRIRRRPPRLPRPRPRPHVLPRP | 0.0842
RRIRDRPPRLPRPRPRPCFNPRP | -0.134
RRIRKRPPRLPRPRPRPLLSPRP | 0.523
RRIRDRPPRLPRPRPRPQQWPRP | 0.0413
RRIRMRPPRLPRPRPRPNENPRP | 0.314
RRIRARPPRLPRPRPRPHKHPRP | 0.0909
RRIRIRPPRLPRPRPRPQAPPRP | -0.331
RRIRQRPPRLPRPRPRPFYQPRP | -0.104
RRIRYRPPRLPRPRPRPPGGPRP | 0.259
RRIRVRPPRLPRPRPRPFWIPRP | -0.182
RRIRMRPPRLPRPRPRPIWPPRP | 0.769
RRIRHRPPRLPRPRPRPQSAPRP | -0.116
RRIRARPPRLPRPRPRPWDWPRP | 0.991
RRIRKRPPRLPRPRPRPMYAPRP | -0.145
RRIRNRPPRLPRPRPRPCFIPRP | -0.86
RRIRCRPPRLPRPRPRPCTMPRP | -0.725

Sequence | shrunken log2 fold change
RRIRYRPPRLPRPRPRPPSGPRP | 0.0974
RRIRMRPPRLPRPRPRPTYCPRP | -0.271
RRIRTRPPRLPRPRPRPCPRPRP | -0.13
RRIRVRPPRLPRPRPRPYSDPRP | -0.145
RRIRGRPPRLPRPRPRPHGAPRP | -0.00969
RRIRVRPPRLPRPRPRPLDWPRP | 0.188
RRIRCRPPRLPRPRPRPHWIPRP | -0.761
RRIRKRPPRLPRPRPRPSAPPRP | 0.504
RRIRQRPPRLPRPRPRPGNGPRP | 0.0197
RRIRRRPPRLPRPRPRPQCWPRP | 0.557
RRIRLRPPRLPRPRPRPTLCPRP | 0.163
RRIRPRPPRLPRPRPRPAKYPRP | -0.317
RRIRVRPPRLPRPRPRPERYPRP | 0.133
RRIRIRPPRLPRPRPRPPRWPRP | 0.514
RRIRNRPPRLPRPRPRPTGMPRP | 0.236
RRIRTRPPRLPRPRPRPLDRPRP | 0.0153
RRIRARPPRLPRPRPRPLCVPRP | 0.183
RRIRQRPPRLPRPRPRPLGKPRP | -0.0227
RRIRHRPPRLPRPRPRPTMSPRP | -0.11
RRIRFRPPRLPRPRPRPSCQPRP | -0.245
RRIRLRPPRLPRPRPRPSSFPRP | -0.0574
RRIRHRPPRLPRPRPRPIYAPRP | 0.0179
RRIRPRPPRLPRPRPRPWDDPRP | -0.144
RRIRHRPPRLPRPRPRPDKEPRP | -0.00149
RRIRERPPRLPRPRPRPRGHPRP | 0.0666
